Results as given in the DeepSol protein solubility set.

Test: soluble on expression in E. coli; label from the status in PepcDB or PDB records

Sequence	soluble on expression in E. coli
MGSDKIHHHHHHVAKAAQRKLLLSELQLGMRVKLPLSWTNHPFLFNRVDINSLAQIEMIRGLGVPYVFLLSEVNTKSEQPSTDNKIIEVQEQPKTERDIKSATRKAMRLSQKRFLEGVNQCRNMFGKIVSDPEGAYRQSATLVEEMLSHLQEVEQPFLTLVGMDENEVSVTQHGVSVAVIAMMIGHALDLTPRELRDIALGSLLHDIGKLKVPENIRRKLSALTTNEANYLQMHPNFGYDMLNRSGLFPKEVLNIVLHHHEFIDGSGFPDGLTGNKIPIVTQIVALANDFDQHLSGQQASSPQVALGYLFKNRAAKHAESLISVLVKILGIYPPGTIVKLSDDSVAKVIMTTKEVAQPQVWACKPDGSEASLRFLSEEGVTVQKALKAEELTEGAIRTLQVDKGVSFYFSALQA	not soluble
MGSDKIHHHHHHMLIDEEITLKKLETFLAFMRTGNLARAAAELGTSNVSVHRAIHSLESALRCPLFKHEGRNLTPLESAYVLEERAQKLVQEVLDTVRLTREAAGFSAERFKLGALYSLTVKTVPQLIMGLKLRRSALNIDLILGSNVDLFYQLKNMELDAILVSLNDSVSDPDCEHLPLFSDDIFLAVPVDSPYARLAEIDLSTLRDTPFVTLTQGFATHQDGTRVFQQAGFEPQIAMQVNDIFTLLSMVSSGVGHALLPKRIEAVYENRVRLIPLQPRYRLQQHIGVVFLKAKERDPNLLALLAECRMYSLRLEQEAAG	not soluble
MSLIDRTHELPLTQQCRILRLARSSMYYTPREVSAHDLALMRRMDELHLEHPFAGARMLRDLLRAEGHAIGRKHVGTLMRRMGIEALYRKPNTSRRRRGDEIYPYLLRDLKIERPNQAWAADITYIPMRKGFVYLFAIIDWSSRRVLAWRLSNTLTTDFCLDAVREALHRYGRPEIFNTDQGCQFTSTDFTDLLKDNGIQISMDGKGCWRDNVFVERLWKSVKYEEVYLKAYDSVAEAKAHLGAYLRFYNERRPHRAHDGRTPDQAYFGALRDETPLAAEGHHHHHH	not soluble
MPTPGTGSVPELQLVPFQLGHFPILQRWFATEKELVQWAGPALRHPLSLEQMHEDLAESRRRPPLRLLWSACRDDQVIGHCQLLFDRRNGVVRLARIVLAPSARGQGLGLPMLEALLAEAFADADIERVELNVYDWNAAARHLYRRAGFREEGLRRSATRVGRERWNVVLMGLLRQEWAAGGAGND	soluble
MTTTTPIRLLVRPITAGDNLAIANVIREVSAEFGLTADKGYTVSDPNLDHLYELYSQPRSAYWVIEVDGHIAGGGGVAPLLGGEADLCELQKMYFLPILRGKGLAKQLALQALAFARQQGFGRCYLETTASLTSAVGLYERLGFEHIGGAMGNTGHVDCEVTMLKTL	not soluble
MGGRSAQPRRFSFACRILHPAVAHDAMAGSRYILRAPASIIRLAQHGWLHCCLHFFLFPAMNDVCFVAKGSALYLFTVEIIVFGSPSLRHNVLSFFYFALPWFKRQCRLKVNFNRLKEIRGIAQVVRKAFFISKTLPCI	soluble
TNDEETIQQQILALSADKRNFLRDPPAGVQFNFDFDQMYPVALVMLQEDELLSKMRFALVPKLVKEEVFWRNYFYRVSLIKQSAQLT	soluble
MDNHKCVLVIDKALPQGLIANTAAVLTLSLGKLHPELIGADNVNKNGEIHTGITSIPIPILASSSHKIKEIRASLKEEATLVDFSNVAQTTKNYQDYSDKLAATRPEDIEYLGIAIYGTKKIINKHTGNLGLIRLEHHHHHH	soluble
AYKVTLKTPDGDITFDVEPGERLIDIGSEKADLPLSCQAGACSTCLGKIVSGTVDQSEGSFLDDEQIEQGYVLTCIAIPESDVVIETHKEDEL	soluble
GPGSMPADKSYALKQVQTFGKKKTAIAVATVTKAAQCNIKVNGVPLQQILPDTLRAKIMEAITVVGSKYYSRLRIDVAVHGGGQVSQAYAARQAIAKGLIAFFQKYHNEVEKAALKDKFLAYDKFLLIADPRRCEPKKWGRHSARTRFTKSYR	soluble
MSEEWEPKIVGFCCNWCTYGGADTAGVGRMQYPPSIRIIRVMCSGRIEPSFILKAFKEGADGVFIGGCHLGDCHYDAGNYKWQRRVMMLYDMLDELGIGRERVLHEWISASEGEKFQTKMNEIYDRIKALGPCTLNENLK	not soluble
GSHMKISEFLHLALPEEQWLPTISGVLRQFAEEECYVYERPPCWYLGKGCQARLHINADGTQATFIDDAGEQKWAVDSIADCARRFMAHPQVKGRRVYGQVGFNFAAHARGIAFNAGEWPLLTLTVPREELIFEKGNVTVYADSADGCRRLCEWVKEASTTTQNAPLAVDTALNGEAYKQQVARAVAEIRRGEYVKVIVSRAIPLPSRIDMPATLLYGRQANTPVRSFMFRQEGREALGFSPELVMSVTGNKVVTEPLAGTRDRMGNPEHNKAKEAELLHDSKEVLEHILSVKEAIAELEAVCLPGSVVVEDLMSVRQRGSVQHLGSGVSGQLAENKDAWDAFTVLFPSITASGIPKNAALNAIMQIEKTPRELYSGAILLLDDTRFDAALVLRSVFQDSQRCWIQAGAGIIAQSTPERELTETREKLASIAPYLMV	soluble
MSLHRLQKVVRHIAQTEIMPRFLNTPSRRKEDGSMLSEADIAAQTAFAAALPLLIDCPMLGEEMSRQEQSALWEQYSGEKGLWIVDPIDGTNNFVNGLPHFAVSVAFVRNGRAELGVIYNPVSGECFYAERGQGAFLNGTRLPLRLVDKKLNEAIAGVEIKYLRSGKLSSRMSTLAPFGTIRSMGSSTLDWCYLACGRYDVYVHGGQKLWDYAAGALIFEEAGGRLTTLEGDGFWSGEHVFKRSVVAALEPKLFERWVGWIRENQEGHHHHHH	soluble
MTNKQVEISMAEWDVMNIIWDKKSVSANEIVVEIQKYKEVSDKTIRTLITRLYKKEIIKRYKSENIYFYSSNIKEDDIKMKTAKTFLNKLYGGDMKSLVLNFAKNEELNNKEIEELRDILNDISKK	soluble
MKKAALMLITFLGLTACSQGVTSMPDRTQTPCGNKPNCVSTQDQREEHHLEPFTLTESATLDAIEQAALQLSGAKTAEKDGNYLRIECTSKIMRFVDDLELKIDGNTLIVRSESRVGYSDFGVNRKRAEQLRTELSKAELIKLEHHHHHH	not soluble
QLGMKGYADTIDRQRMQTQAQFVLEKMSREIRHAVPNSFHVPTGSTNCLEFMPIEYSGFYTLTNNNLEFLLGNDSTLNPIPADRWMVINPSRYEDLQSASPQSLAVGNLAKTGD	not soluble
MSLSEEILINITPMESRVAVVENGVLQEVHVERTQRRGIVGNIYKGRVVRVLPGMQAAFVDIGLERAAFIHAAEISNREGSAVESISALVHEGQALVVQVTKDPIGTKGARLTTHLSIPSRYLVYMPRTSHVGISLRIEDEVERERLKKVVADCVAAEGIEGQGGFILRTAAEGAGEDEILADIRYLRRLWDQIAAQIQTVGAPSVIYEDLSLAIRTLRDLVNPRIEKIRIDSRENFQKITSFVEELMPEISDRLEHYPGERPIFDLYGVEDEIQKALERKVLLKSGGYLIVDPTEAMTTIDVNTGAFVGHRNLEETIFKTNLEAATAIARQLRLRNLGGIIIIDFIDMEDEEHRRQVLRTLEKQLERDHAKTNIIGITELGLVQMTRKRTRESLVQILCEPCPCCQGRGMLKTAETTCYEIFREILREARAYQADSYLVLANQKVVDRLLDEESGNVADLEAFIGRTIKFQVEAMYSQEQYDVVLLEGGSHHHHHH	soluble
MSSALISSEQALNDYFTALLDEETAEFESTLKPEPVWEMAPAIQSVPNKSYFDAEIEELELPNLEDVQRLLSQLESSNPVADLDLEQILEENTAKIAKIDPVVQPCSVVEEIQEWEIETSYVEPDIETPESVIEDDLEPESVDTEAEREIAIETSIEEPVAEVPVVEAQAVPETQAGRNKLGTWTNTIREKDFQVLYFDVNGVTFAVPLDELGGIHRMTTLNHLIGRPAWYLGLQTNRDSQLDVVDTAKWVMAEKLRDESYKQAYQYIVMLGESAWGLASTQLMGTELLSTEKVRWREQVGKRPWLAGMVKEKMCALIHVQALIAMLNAGLDVKALEN	not soluble
MGSDKIHHHHHHMRIAVIGGGSSYTPELVKGLLDISEDVRIDEVIFYDIDEEKQKIVVDFVKRLVKDRFKVLISDTFEGAVVDAKYVIFQFRPGGLKGRENDEGIPLKYGLIGQETTGVGGFSAALRAFPIVEEYVDTVRKTSNATIVNFTNPSGHITEFVRNYLEYEKFIGLCNVPINFIREIAEMFSARLEDVFLKYYGLNHLSFIEKVFVKGEDVTEKVFENLKLKLSNIPDEDFPTWFYDSVRLIVNPYLRYYLMEKKMFKKISTHELRAREVMKIEKELFEKYRTAVEIPEELTKRGGSMYSTAAAHLIRDLETDEGKIHIVNTRNNGSIENLPDDYVLEIPCYVRSGRVHTLSQGKGDHFALSFIHAVKMYERLTIEAYLKRSKKLALKALLSHPLGPDVEDAKDLLEEILEANREYVKLG	not soluble
GQANHPTAAVVTEKQQMLEQHLQDVRKRVQDLEQKMKVVENLQDDFDFNYKTLKSQGDMQDLNGNNQSVTRQKMQQLEQMLTALDQMRRSIVSELAGLLSAMEYVQKTLTDEELADWKRRQQIACIGGPPNICLDRLENWITSLAESQLQTRQQIKKLEELQQKVSYKGDPIVQHRPMLEERIVELFRNLMKSAFVVERQPCMPMHPDRPLVIKTGVQFTTKVRLLVKFPELNYQLKIKVCIDKDSGDVAALRGSRKFNILGTNTKVMNMEESNNGSLSAEFKHLTLREQRCGNGGRANCDASLIVTEELHLITFETEVYHQGLKIDLETHSLPVVVISNICQMPNAWASILWYNMLTNNPKNVNFFTKPPIGTWDQVAEVLSWQFSSTTKRGLSIEQLTTLAEKLLGPGVNYSGCQITWAKFCKENMAGKGFSFWVWLDNIIDLVKKYILALWNEGYIMGFISKERERAILSTKPPGTFLLRFSESSKEGGVTFTWVEKDISGKTQIQSVEPYTKQQLNNMSFAEIIMGYKIMDATNILVSPLVYLYPDIPKEEAFGKYCR	soluble
MGSDKIHHHHHHMEQSATPACSICFPDSICRISPSSPLASPNGDEYHMKIALLCSGLGNVQRGHEIFVRDLFDMLKGSVDITLFKGGGEPAPNELVIDNVSRNAPSLQNIHLAVSPRWKVAMQEQERIRIETETFAHAALRPLLEGGYDIIHCLEQEVCNRLYGFRHLFAHTPKFLFSNGGAIPAAKLSNCDFVQEHTEYNLQHSAREKAFCIPHGVDIQRFNPSISSDFRARYGIAEDAFVVISVGIICYWHKRMDYLIKEVAQIPEAHLLIVGQECADTPAIKALGEKLMPGRITFTKMPHDELPQAYAAADVFALGSLFETFGIVYIEALAMGLPVFCTEHPNQRSIVREGVFLDIKQAGALRDALLKRDPAQMRYLRERGPQIARETYALEKLKSAYIEHYQRIAASEVSLPRYTFKTKLQDNVRSLYRRLSRG	not soluble
MIAYRSNQGVTRQRQQTKVFKLVSTYDKVAVKNAIRAAYRQVFERDLEPYIINSEFTALESKLSNNEINVKEFIEGLGTSELYMKEFYAPYPNTKVIEMGTKHFLGRAPLNQKEIQQYNQILASQGLKAFIGAMVNGMEYLQTFGEDTVPYRRFPTLPALEHHHHHH	not soluble
MTSAAEITAAVRQLYNTYPFPPEPLLDEPPPGYNWRWSWPAAYSFCTGRYPSQLDVAILDAGCGTGVGTEYLAHLNPQAKITALDLSEAALAIACERCRRSGATNVQFHHLSLEEVAQLGQTFQMINCVGVLHHLPEPQRGIQALADVLAPGGIVHIFVYGEYGRWEIKLMQQAIALLQGSDRHNYREGVAIGRQLFAALPENNRLKKREQERWSLENQRDECFADMYVHPQEIDYTIASLFELIRASGLEFIGFSNPQVWQLERLLGSQPELLQRAQQLDPIQQYQLIECLDPEAMTHFEFFLAKPPLPRHDWAADRELLAAIPWRHPCIDGWPGACVFNCHYEVIHLNQAEQEFLNAASGKATVAELLAQQPDFNLAEVRSLLARHLLLLGVKE	not soluble
SNAVTATQLAAKATTLYYLHKQAMTDEVSLLLEQALQLEPYNEAALSLIANDHFISFRFQEAIDTWVLLLDSNDPNLDRVTIIESINKAKKLM	soluble
